The numbers were not newly measured in paper PMC7039207, which cites them from elsewhere.

The data set addresses Vinculin tail D5 (Gallus gallus) (UniProt P12003).

The Kd is the concentration at which binding is half-saturated. As for “Vinculin head D1-D4 (from UniProt P12003)”, the Kd is 0.1 µM.
